Source: US20240239915A1 (Zymeworks, published 2024)
Changes are numbered by the printed parent chain. Numbers in names are those of the source. Like-named read-outs stand apart in the source and are kept apart here.

B1: L234A/L235A (LALA) variant of IgG1 WT of the anti-EGFR antibody panitumumab (antibody)
heavy: not shown
light: not shown
notes: Mutations in both CH2 domains
B2: L234A/L235A/D265Q (LALA-DQ) variant of IgG1 WT of the anti-EGFR antibody panitumumab (antibody)
heavy: QVQLQESGPGLVKPSETLSLTCTVSGGSVSSGDYYWTWIRQSPGKGLEWIGHIYYSGNTNYNPSLKSRLTISIDTSKTQFSLKLSSVTAADTAIYYCVRDRVTGAFDIWGQGTMVTVSSASTKGPSVFPLAPSSKSTSGGTAALGCLVKDYFPEPVTVSWNSGALTSGVHTFPAVLQSSGLYSLSSVVTVPSSSLGTQTYICNVNHKPSNTKVDKRVEPKSCDKTHTCPPCPAPEAAGGPSVFLFPPKPKDTLMISRTPEVTCVVVQVSHEDPEVKFNWYVDGVEVHNAKTKPREEQYNSTYRVVSVLTVLHQDWLNGKEYKCKVSNKALPAPIEKTISKAKGQPREPQVYTLPPSREEMTKNQVSLTCLVKGFYPSDIAVEWESNGQPENNYKTTPPVLDSDGSFFLYSKLTVDKSRWQQGNVFSCSVMHEALHNHYTQKSLSLSPGK
light: not shown
notes: Mutations in both CH2 domains; positions are EU numbers
B3: L234A/L235A/D265T (LALA-DT) variant of IgG1 WT of the anti-EGFR antibody panitumumab (antibody)
heavy: B2 heavy with Q267T
light: not shown
notes: as for B2

What was measured:
[1] = biological target: T1, Recombinant Human Fc gamma RIIA/CD32a (H167) Protein (R&D Systems), His-tagged (human, UniProt P12318 34-218); assay: SPR (Biacore T200); receptor immobilized directly on CM5 chip, antibody as analyte at 4.7 µM
T1 construct: also called human FcγRIIa (H167); hFcγRIIa (H167)
T1 sequence: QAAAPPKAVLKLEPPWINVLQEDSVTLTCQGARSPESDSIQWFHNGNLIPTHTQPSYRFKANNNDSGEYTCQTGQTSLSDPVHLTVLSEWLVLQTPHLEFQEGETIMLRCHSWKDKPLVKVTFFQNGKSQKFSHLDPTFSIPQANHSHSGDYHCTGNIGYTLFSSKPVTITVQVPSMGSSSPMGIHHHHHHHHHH

[2] = biological target: T2, Recombinant Human Fc gamma RIIA/CD32a (R167) Protein (R&D Systems), His-tagged (human, UniProt P12318 36-218); assay: as above
T2 construct: also called human FcγRIIa; hFcγRIIa
T2 chain: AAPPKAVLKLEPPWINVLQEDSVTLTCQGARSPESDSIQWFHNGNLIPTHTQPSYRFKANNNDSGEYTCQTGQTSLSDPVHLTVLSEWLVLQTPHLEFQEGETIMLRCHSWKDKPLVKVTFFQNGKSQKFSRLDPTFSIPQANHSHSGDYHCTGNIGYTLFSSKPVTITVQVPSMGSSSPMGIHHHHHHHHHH

[3] = biological target: T3, Recombinant Human Fc gamma RIIIA/CD16a protein (R&D Systems), His-tagged (human, UniProt P08637 17-208); assay: as above
T3 construct: also called human FcγRIIIa; hFcγRIIIa
T3 sequence (P08637 other isoform, or with tags, fused parts or gaps): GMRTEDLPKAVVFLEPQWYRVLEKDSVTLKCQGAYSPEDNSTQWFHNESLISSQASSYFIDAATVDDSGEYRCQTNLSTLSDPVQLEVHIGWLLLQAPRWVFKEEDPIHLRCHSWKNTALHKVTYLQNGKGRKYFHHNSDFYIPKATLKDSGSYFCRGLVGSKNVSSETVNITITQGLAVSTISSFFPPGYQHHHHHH

[4] = biological target: T4, Recombinant Human Fc gamma RIIB/C (CD32b/c) Protein (R&D Systems), His-tagged (human, UniProt P31994 46-217); assay: as above
T4 construct: also called human FcγRIIb/c; hFcγRIIb/c
T4 sequence: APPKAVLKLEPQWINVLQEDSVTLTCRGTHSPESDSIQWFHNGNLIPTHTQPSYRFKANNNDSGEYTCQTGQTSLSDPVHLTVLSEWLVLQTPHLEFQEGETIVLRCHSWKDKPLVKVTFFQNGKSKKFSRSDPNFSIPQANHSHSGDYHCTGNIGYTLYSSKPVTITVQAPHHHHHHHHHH

[5] = biological target: T5, Recombinant Cynomolgus Fc gamma RIIA/CD32a Protein (R&D Systems), His-tagged (cynomolgus); assay: as above
T5 construct: also called cynomolgus FcγRIIa; cFcγRIIa
T5 chain: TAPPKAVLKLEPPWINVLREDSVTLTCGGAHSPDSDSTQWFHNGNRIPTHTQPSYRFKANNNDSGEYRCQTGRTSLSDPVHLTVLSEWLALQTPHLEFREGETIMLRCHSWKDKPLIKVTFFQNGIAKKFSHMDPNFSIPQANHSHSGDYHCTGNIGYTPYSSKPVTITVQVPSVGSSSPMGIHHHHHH

[6] = biological target: T6, Recombinant Cynomolgus Fc gamma RIII/CD16 Protein (R&D Systems), His-tagged (cynomolgus, UniProt Q8SPW2 17-208); assay: as above
T6 construct: also called cynomolgus FcγRIII; cFcγRIII
T6 chain: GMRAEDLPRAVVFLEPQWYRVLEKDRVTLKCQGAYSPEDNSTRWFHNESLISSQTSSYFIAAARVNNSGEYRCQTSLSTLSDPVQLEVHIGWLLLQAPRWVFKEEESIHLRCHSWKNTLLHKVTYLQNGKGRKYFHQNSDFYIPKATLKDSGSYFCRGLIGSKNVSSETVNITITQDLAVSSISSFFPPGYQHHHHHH

[7] = biological target: T7, Recombinant Cynomolgus Fc gamma RIIB protein (R&D Systems), His-tagged (cynomolgus); assay: as above
T7 construct: also called cynomolgus FcγRIIb; cFcγRIIb
T7 chain: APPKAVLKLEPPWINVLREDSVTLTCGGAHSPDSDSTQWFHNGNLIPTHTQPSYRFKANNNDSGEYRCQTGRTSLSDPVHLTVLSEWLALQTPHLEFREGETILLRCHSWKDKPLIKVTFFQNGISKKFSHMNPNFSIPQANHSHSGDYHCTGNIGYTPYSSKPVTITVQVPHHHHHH

[8] = biological target: T8, human FcRn (human neonatal Fc receptor large subunit p51 and beta2-microglobulin), biotinylated (human, UniProt P55899 24-297; P61769 21-119, biotinylated (site not stated)); assay: BLI (Octet RED384), biotinylated FcRn on streptavidin biosensor, binding at pH 6.0, dissociation at pH 7.4
T8 sequence (P55899 24-297 limits assumed, chain 1 of 2): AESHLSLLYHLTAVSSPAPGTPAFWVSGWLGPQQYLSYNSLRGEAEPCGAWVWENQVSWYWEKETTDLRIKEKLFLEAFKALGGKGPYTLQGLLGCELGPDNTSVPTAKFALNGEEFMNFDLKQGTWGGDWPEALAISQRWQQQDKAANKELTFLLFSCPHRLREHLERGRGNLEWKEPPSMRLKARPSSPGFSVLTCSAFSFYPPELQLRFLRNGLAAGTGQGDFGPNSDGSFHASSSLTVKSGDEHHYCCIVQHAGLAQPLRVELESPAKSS
T8 sequence (P61769 21-119 limits assumed, chain 2 of 2): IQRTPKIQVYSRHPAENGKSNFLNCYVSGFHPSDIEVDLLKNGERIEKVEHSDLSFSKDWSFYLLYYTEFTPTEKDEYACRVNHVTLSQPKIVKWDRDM

[9] = biological target: T8, human FcRn (human neonatal Fc receptor …); assay: BLI (Octet RED384), biotinylated FcRn on streptavidin biosensor, binding and dissociation at pH 6.0
[10] = biological target: T9, Recombinant Cynomolgus Monkey Fc gamma RI/CD64 Protein, CF (R&D Systems), His-tagged (cynomolgus, UniProt P12314 11-288 (human entry)); assay: SPR (Biacore T200); His-tagged receptor captured on anti-His antibody chip, antibody as analyte at 4.7 µM
T9 construct: also called cynomolgus FcγRI; cFcγRI
T9 chain: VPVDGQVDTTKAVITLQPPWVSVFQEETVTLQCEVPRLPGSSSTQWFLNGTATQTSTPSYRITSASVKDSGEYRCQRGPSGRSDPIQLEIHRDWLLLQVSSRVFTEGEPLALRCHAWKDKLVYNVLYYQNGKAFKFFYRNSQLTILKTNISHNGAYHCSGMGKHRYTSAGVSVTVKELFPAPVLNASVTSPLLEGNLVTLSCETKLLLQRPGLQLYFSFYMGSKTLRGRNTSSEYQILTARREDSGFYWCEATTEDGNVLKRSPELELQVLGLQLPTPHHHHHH

[11] = biological target: T1, Recombinant Human Fc gamma RIIA/CD32a …; assay: SPR (Biacore T200); receptor immobilized directly on CM5 chip, antibody as analyte at 4.7 µM; remark: listed apart in the source
[12] = biological target: T10, Recombinant Human Fc gamma RIIIA/CD16a (V176F) Protein (R&D Systems), His-tagged (human, UniProt P08637 17-208); assay: as above
T10 construct: no further substitution applied; also called human FcγRIIIa (V176F); hFcγRIIIa (V176F)
T10 sequence (P08637 other isoform, or with tags, fused parts or gaps V176F V176F): as the sequence (P08637 other isoform, or with tags, fused parts or gaps) above, with V160F counted along it

[13] = biological target: T3, Recombinant Human Fc gamma RIIIA/CD16a …; assay: as above; remark: listed apart in the source
[14] = biological target: T11, Recombinant Human Fc gamma RIIIB/CD16b Protein (R&D Systems), His-tagged (human, UniProt O75015 20-208); assay: as above
T11 construct: also called human FcγRIIIb; hFcγRIIIb
T11 chain: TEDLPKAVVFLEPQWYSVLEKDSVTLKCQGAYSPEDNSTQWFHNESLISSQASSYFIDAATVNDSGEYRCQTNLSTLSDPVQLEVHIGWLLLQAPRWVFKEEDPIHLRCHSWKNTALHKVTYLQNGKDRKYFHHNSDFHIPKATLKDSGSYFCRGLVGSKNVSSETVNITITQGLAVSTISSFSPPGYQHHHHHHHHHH

[15] = biological target: T4, Recombinant Human Fc gamma RIIB/C …; assay: as above; remark: listed apart in the source
[16] = biological target: T5, Recombinant Cynomolgus Fc gamma …; assay: as above
[17] = biological target: T6, Recombinant Cynomolgus Fc gamma …; assay: as above
[18] = biological target: T7, Recombinant Cynomolgus Fc gamma RIIB …; assay: as above
[19] = biological target: T9, Recombinant Cynomolgus Monkey Fc gamma …; assay: SPR (Biacore T200), RU at 4.7 µM antibody

| Binder | binding response (RU) [1] [RU] | binding response (RU) [2] [RU] | binding response (RU) [3] [RU] | binding response (RU) [4] [RU] | binding response (RU) [5] [RU] | binding response (RU) [6] [RU] | binding response (RU) [7] [RU] | koff [8] [s⁻¹] | Kd [9] [nM] | binding response (RU) [10] [RU] | binding response (RU) [11] [RU] | binding response (RU) [12] [RU] | binding response (RU) [13] [RU] | binding response (RU) [14] [RU] | binding response (RU) [15] [RU] | binding response (RU) [16] [RU] | binding response (RU) [17] [RU] | binding response (RU) [18] [RU] | RU value relative to the LALA-DA variant [19] [fold] |
| --- | --- | --- | --- | --- | --- | --- | --- | --- | --- | --- | --- | --- | --- | --- | --- | --- | --- | --- | --- |
| B1 | 160 | 330 | 420 | 78 | 94 | 540 | 270 | 2.8 | 5.5 | 3200 |  |  |  |  |  |  |  |  |  |
| B2 |  |  |  |  |  |  |  |  |  |  | 34 | -3.5 | -2.1 | -0.6 | 15 | 22 | 3.5 | 89 | ≥ 1.4 |
| B3 |  |  |  |  |  |  |  |  |  |  | 37 | -3.6 | -1.4 | -0.2 | 15 | 24 | 4.8 | 93 | ≥ 1.4 |
